Starred links: 1 amine or outer side, 2 acyl side, 3 side chain; linkers in the order of their positions; H or OH if unused. Positions of bridges follow the written chain, without caps; N, C: chain ends. Non-standard residues stand in square brackets, D forms with d. Residues, ends and D or L forms follow the SMILES beside them. Primed or numbered codes have the meaning given here. *: point of attachment. FITC = O=C1OC2(c3ccc(O)cc3Oc3cc(O)ccc32)c2ccc(NC(=S)*)cc21; FITC″ = Lys(FITC) = N6-fluorescein-thiocarbamoyl-L-lysine; Trimesoyl = O=C(c1cc(C(=O)[*:2])cc(C(=O)[*:3])c1)[*:1]; NH(1S,2S-2-CONH2-cPent) = NC(=O)[C@H]1CCC[C@@H]1N*; trimesoyl″ = benzene-1,3,5-tricarbonyl scaffold; FITC′ = fluorescein isothiocyanate, on Lys NZ; trimesoyl = benzene-1,3,5-tricarbonyl; β3hV = CC(C)[C@H](N)CC(=O)O; Nle = CCCC[C@H](N)C(=O)O; Dap = NC[C@H](N)C(=O)O; βAla = NCCC(=O)O; Sar = CNCC(=O)O
Target: T1, TNFα-TNFR1 interaction (Homo sapiens, UniProt P01375)
T1 construct: made in house; host or cells: Escherichia coli (TNFα)
Assay: ELISA inhibition of TNFα-TNFR1 interaction (immobilized biotinylated TNFα, TNFR1-HRP)
Type: binding
Settings: Table 5; peptides without Lys(FITC) label
Procedure: Inhibition of TNFα-TNRF1 interaction by ELISA was carried out as previously described (Lian, W.; et al., supra).
Because of its high-throughput capability, FA analysis had been used to generate all of the SAR data described above. […] To confirm the SAR data obtained by FA analysis, some of the compounds in Table 5 (as well as new compounds) were resynthesized without the Lys(FITC) label and employed a more sensitive ELISA-based assay to determine the IC50 values for inhibition of the TNFα-TNFR1 interaction. Briefly, biotinylated TNFα was immobilized onto a NeutrAvidin-coated surface. TNFR1 conjugated with horseradish peroxidase (HRP) (0.5 nM) was added along with different concentrations of a peptide inhibitor. After washing, the amount of bound TNFR1-HRP was quantitated by ELISA. […] In agreement with the FA results, either extension at the C-terminus of β-Ala with another amino acid (C1-67 to C1-70) or side-chain modification of β-Ala (C1-71 to C1-73) decreased TNFα binding.

Row | Molecule | IC50
1 | CCCC[C@@H]1NC(=O)c2cc3cc(c2)C(=O)NC[C@@H](C(=O)N[C@H]2CCC[C@@H]2C(N)=O)NC(=O)[C@H](Cc2c[nH]cn2)NC(=O)[C@@H](CCCCN)NC(=O)CNC(=O)[C@@H](Cc2c[nH]cn2)NC(=O)[C@H](Cc2c[nH]c4ccccc24)NC(=O)[C@H](CCCCNC3=O)NC(=O)[C@@H](CO)NC(=O)[C@H](Cc2ccc(O)cc2)NC1=O [Compound C1-72] ([Nle]Y[dS]KW[dH]G[dK]H[Dap]-{NH(1S,2S-2-CONH2-cPent)}; linker N-4-10 via Trimesoyl) | 110 ± 30 nM
2 | CCCC[C@@H]1NC(=O)c2cc3cc(c2)C(=O)NC[C@@H](C(=O)N[C@H](CC(N)=O)C(C)C)NC(=O)[C@H](Cc2c[nH]cn2)NC(=O)[C@@H](CCCCN)NC(=O)CNC(=O)[C@@H](Cc2c[nH]cn2)NC(=O)[C@H](Cc2c[nH]c4ccccc24)NC(=O)[C@H](CCCCNC3=O)NC(=O)[C@@H](CO)NC(=O)[C@H](Cc2ccc(O)cc2)NC1=O [Compound C1-71] ([Nle]Y[dS]KW[dH]G[dK]H[Dap][β3hV]-NH2; linker N-4-10 via Trimesoyl) | 2400 ± 1300 nM
3 | CCCC[C@@H]1NC(=O)c2cc3cc(c2)C(=O)NC[C@@H](C(=O)NCCC(=O)N[C@H](Cc2ccccc2)C(N)=O)NC(=O)[C@H](Cc2c[nH]cn2)NC(=O)[C@@H](CCCCN)NC(=O)CNC(=O)[C@@H](Cc2c[nH]cn2)NC(=O)[C@H](Cc2c[nH]c4ccccc24)NC(=O)[C@H](CCCCNC3=O)NC(=O)[C@@H](CO)NC(=O)[C@H](Cc2ccc(O)cc2)NC1=O [Compound C1-70] ([Nle]Y[dS]KW[dH]G[dK]H[Dap][βAla][dF]-NH2; linker N-4-10 via Trimesoyl) | > 10000 nM
4 | CCCC[C@@H]1NC(=O)c2cc3cc(c2)C(=O)NC[C@@H](C(=O)NCCC(=O)N[C@@H](Cc2ccccc2)C(N)=O)NC(=O)[C@H](Cc2c[nH]cn2)NC(=O)[C@@H](CCCCN)NC(=O)CNC(=O)[C@@H](Cc2c[nH]cn2)NC(=O)[C@H](Cc2c[nH]c4ccccc24)NC(=O)[C@H](CCCCNC3=O)NC(=O)[C@@H](CO)NC(=O)[C@H](Cc2ccc(O)cc2)NC1=O [Compound C1-69] ([Nle]Y[dS]KW[dH]G[dK]H[Dap][βAla]F-NH2; linker N-4-10 via Trimesoyl) | 1300 ± 1100 nM
5 | CCCC[C@@H]1NC(=O)c2cc3cc(c2)C(=O)NC[C@@H](C(=O)NCCC(=O)NCCC(N)=O)NC(=O)[C@H](Cc2c[nH]cn2)NC(=O)[C@@H](CCCCN)NC(=O)CNC(=O)[C@@H](Cc2c[nH]cn2)NC(=O)[C@H](Cc2c[nH]c4ccccc24)NC(=O)[C@H](CCCCNC3=O)NC(=O)[C@@H](CO)NC(=O)[C@H](Cc2ccc(O)cc2)NC1=O [Compound C1-67] ([Nle]Y[dS]KW[dH]G[dK]H[Dap][βAla][βAla]-NH2; linker N-4-10 via Trimesoyl) | 1500 ± 900 nM

Same assay, conditions: inhibition of TNFα-TNFR1 interaction, unlabeled peptides

Row | Molecule | IC50
6 | CC(=O)C[C@H](CCc1ccccc1)NC(=O)[C@@H](CC(N)=O)NC(=O)C(N)Cc1ccccc1F (stereo partly drawn) [Compound C1-74-4] | 30 nM
7 | CCCC[C@@H]1NC(=O)c2cc3cc(c2)C(=O)NC[C@@H](C(=O)NCCC(N)=O)NC(=O)[C@H](Cc2c[nH]cn2)NC(=O)[C@@H](CCCCN)NC(=O)CNC(=O)[C@@H](Cc2c[nH]cn2)NC(=O)[C@H](Cc2c[nH]c4ccccc24)NC(=O)[C@H](CCCCNC3=O)NC(=O)[C@@H](CO)NC(=O)[C@H](Cc2ccc(O)cc2)NC1=O [Compound C1-66] ([Nle]Y[dS]KW[dH]G[dK]H[Dap][βAla]-NH2; linker N-4-10 via Trimesoyl) | 85 nM

Same assay, conditions: relative to C1-74

Row | Molecule | Improvement of IC50 over C1-74 (fold)
8 | CC(=O)C[C@H](CCc1ccccc1)NC(=O)[C@@H](CC(N)=O)NC(=O)C(N)Cc1ccccc1F (stereo partly drawn) [Compound C1-74-4] | ~2 fold

Target: T2, Recombinant TNFα containing an N-terminal 13-aa ybbR tag (human, UniProt P01375 77-233, biotin at the ybbR tag in the ELISA assays)
T2 construct: Expressed in E. coli; Same construct used unlabelled (FA) and biotinylated on NeutrAvidin (ELISA); also called tumor necrosis factor-alpha; human TNFα; not shown: N-terminal 13-aa ybbR tag
T2 sequence (P01375 77-233): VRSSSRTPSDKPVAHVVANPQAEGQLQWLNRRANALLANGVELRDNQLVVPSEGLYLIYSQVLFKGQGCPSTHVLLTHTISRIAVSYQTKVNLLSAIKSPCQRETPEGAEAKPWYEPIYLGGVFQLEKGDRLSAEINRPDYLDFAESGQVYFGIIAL
Assay: FA
Settings: not given
Procedure: (§1) The FA values were measured on a Molecular Devices Spectramax M5 spectrofluorimeter, with excitation and emission wavelengths at 485 and 525 nm, respectively. Equilibrium dissociation constants (KD) were determined by plotting the FA values as a function of TNFα concentration and fitting the data to the following equation $$Y = \frac{\left(Amin + \left(Amax \times \frac{Q_b}{Q_f} - Amin\right)\left(\frac{(L+x+K_d) - \sqrt{((L+x+K_d)^2 - 4Lx)}}{2L}\right)\right)}{\left(1 + \left(\frac{Q_b}{Q_f} - 1\right)\left(\frac{(L+x+K_d) - \sqrt{((L+x+K_d)^2 - 4Lx)}}{2L}\right)\right)}$$
(§2) where Y is the measured anisotropy at a given TNFα concentration x; L is the bicyclic peptide concentration; Qb/Qf is the correction fact for dye-protein interaction; Amax is the maximum anisotropy when all the peptides are bound to TNFα, while $Amin$ is the minimum anisotropy. […] The FA values were plotted against the competitor peptide concentration to determine the IC$50$ values.

Row | Molecule | fold reduction in affinity against D-Ala at position-3 | fold loss of binding against Gly-7 | fold better binding against C1 | fold reduction in affinity against His at position-9 | fold effect on affinity against Gly-7 | fold improvement in affinity against D-Phe at position-6 | fold reduction in affinity against C1-35 | fold decrease in TNFα binding against C1 (Phg at position-1)
9 | [Nle]Y[dS]KY[dF]G[dK]H[Dap]K(FITC′)-NH2 (bridge N-4-10 via trimesoyl″; not fully specified (N-terminus)) [C1-11] | ~2 fold | – | – | – | – | – | – | –
10 | [Nle]Y[dS]KW[dH]V[dK]H[Dap]K(FITC)-NH2 (linker N-4-10 via trimesoyl″) [C1-46] | – | 3 to 6 fold | – | – | – | – | – | –
11 | [Nle]Y[dA]KY[dF]G[dK]H[Dap]K(FITC)-NH2 (linker N-4-10 via trimesoyl″) [C1-5] | – | – | ~2 fold | – | – | – | – | –
12 | [Nle]Y[dS]KW[dH]G[dK]F[Dap]K(FITC)-NH2 (linker N-4-10 via trimesoyl″) [C1-50] | – | – | – | ~30 fold | – | – | – | –
13 | [Nle]Y[dS]KY[dH]A[dK]H[Dap]K(FITC)-NH2 (linker N-4-10 via trimesoyl″) [C1-44] | – | – | – | – | 2 fold | – | – | –
14 | [Nle]Y[dS]KW[dH]S[dK]H[Dap]K(FITC)-NH2 (linker N-4-10 via trimesoyl″) [C1-45] | – | – | – | – | 2 fold | – | – | –
15 | [Nle]Y[dS]KW[dH]L[dK]H[Dap]K(FITC)-NH2 (linker N-4-10 via trimesoyl″) [C1-47] | – | 3 to 6 fold | – | – | – | – | – | –
16 | [Nle]Y[dS]KY[dH]G[dK]H[Dap]K(FITC)-NH2 (linker N-4-10 via trimesoyl″) [C1-30] | – | – | – | – | – | ~2 fold | – | –
17 | [Nle]Y[dS]KW[dH]G[dK]H[Dap]RK(FITC)-NH2 (linker N-4-10 via trimesoyl″, C1-35 core with R11 as printed) [C1-53] | – | – | – | – | – | – | > 40 fold | –
18 | [Nle]Y[dS]KY[dH][Sar][dK]H[Dap]K(FITC)-NH2 (linker N-4-10 via trimesoyl″) [C1-43] | – | – | – | – | 2 fold | – | – | –
19 | GY[dA]KY[dF]G[dK]H[Dap]K(FITC′)-NH2 (bridge N-4-10 via trimesoyl″; not fully specified (N-terminus)) [C1-1] | – | – | – | – | – | – | – | ≥ 5 fold
20 | NY[dA]KY[dF]G[dK]H[Dap]K(FITC″)-NH2 (linker N-4-10 via trimesoyl) [C1-9] | – | – | – | – | – | – | – | ≥ 5 fold
21 | DY[dA]KY[dF]G[dK]H[Dap]K(FITC″)-NH2 (linker N-4-10 via trimesoyl) [C1-8] | – | – | – | – | – | – | – | ≥ 5 fold
22 | SY[dA]KY[dF]G[dK]H[Dap]K(FITC)-NH2 (linker N-4-10 via trimesoyl″) [C1-6] | – | – | – | – | – | – | – | ≥ 5 fold
23 | TY[dA]KY[dF]G[dK]H[Dap]K(FITC″)-NH2 (linker N-4-10 via trimesoyl) [C1-7] | – | – | – | – | – | – | – | ≥ 5 fold

Target: T2, Recombinant TNFα containing an …
Assay: FA, FITC-peptide + TNFα titration
Settings: not given
Procedure: as §1, §2

Row | Molecule | Kd
24 | [Nle]Y[dS]KY[dF]G[dK]H[Dap]K(FITC′)-NH2 (bridge N-4-10 via trimesoyl″; not fully specified (N-terminus)) [C1-11] | 1500 nM
25 | [Nle]Y[dS]KW[dH]V[dK]H[Dap]K(FITC)-NH2 (linker N-4-10 via trimesoyl″) [C1-46] | 880 nM
26 | [Nle]Y[dA]KY[dF]G[dK]H[Dap]K(FITC)-NH2 (linker N-4-10 via trimesoyl″) [C1-5] | 850 nM
27 | [Nle]Y[dS]KW[dH]G[dK]F[Dap]K(FITC)-NH2 (linker N-4-10 via trimesoyl″) [C1-50] | 7500 nM
28 | [Nle]Y[dS]KY[dH]A[dK]H[Dap]K(FITC)-NH2 (linker N-4-10 via trimesoyl″) [C1-44] | 320 nM
29 | [Nle]Y[dS]KW[dH]S[dK]H[Dap]K(FITC)-NH2 (linker N-4-10 via trimesoyl″) [C1-45] | 420 nM
30 | [Nle]Y[dS]KW[dH]L[dK]H[Dap]K(FITC)-NH2 (linker N-4-10 via trimesoyl″) [C1-47] | 1700 nM
31 | [Nle]Y[dS]KY[dH]G[dK]H[Dap]K(FITC)-NH2 (linker N-4-10 via trimesoyl″) [C1-30] | 760 nM
32 | [Nle]Y[dS]KY[dH][Sar][dK]H[Dap]K(FITC)-NH2 (linker N-4-10 via trimesoyl″) [C1-43] | 330 nM
33 | GY[dA]KY[dF]G[dK]H[Dap]K(FITC′)-NH2 (bridge N-4-10 via trimesoyl″; not fully specified (N-terminus)) [C1-1] | 7100 nM
34 | NY[dA]KY[dF]G[dK]H[Dap]K(FITC″)-NH2 (linker N-4-10 via trimesoyl) [C1-9] | 7900 nM
35 | DY[dA]KY[dF]G[dK]H[Dap]K(FITC″)-NH2 (linker N-4-10 via trimesoyl) [C1-8] | 7000 nM
36 | SY[dA]KY[dF]G[dK]H[Dap]K(FITC)-NH2 (linker N-4-10 via trimesoyl″) [C1-6] | 6200 nM
37 | TY[dA]KY[dF]G[dK]H[Dap]K(FITC″)-NH2 (linker N-4-10 via trimesoyl) [C1-7] | 7200 nM

Target: T2, Recombinant TNFα containing an …
Assay: FA, FITC-peptide + TNFα titration
Settings: not given
Remark: another data set of the same source
Procedure: as §1, §2

Row | Molecule | Kd
38 | [Nle]Y[dS]KY[dF]G[dK]H[Dap]K(FITC′)-NH2 (bridge N-4-10 via trimesoyl″; not fully specified (N-terminus)) [C1-11] | 1500 nM
39 | [Nle]Y[dS]KY[dH]G[dK]H[Dap]K(FITC)-NH2 (linker N-4-10 via trimesoyl″) [C1-30] | 760 nM

Source: patent US10913773B2, “Bicyclic peptidyl inhibitor of tumor necrosis factor-alpha” (Ohio State Innovation Foundation, priority 2016, dated 2021)
